Measured values published in patent publication US20240343811A1.
Like-named read-outs stand apart in the source and are kept apart here.

Key:
[1] = target: CD16 on primary human NK cells (human) (UniProt P08637); test: FACS on human NK cells
[2] = target: human CD16a (158V), full length, on cells (human) (UniProt P08637); test: cell-based or functional assay
[3] = target: cynomolgus monkey CD16, full length, on FlpinCHO cells (cynomolgus monkey) (UniProt Q8SPW2); test: FACS on FlpinCHO cells
[4] = target: human CD16a (158F), full length, on FlpinCHO cells (human) (UniProt P08637); test: FACS on FlpinCHO cells
human CD16a (158F), full length, on FlpinCHO cells (human), sequence (P08637 17-254 limits assumed): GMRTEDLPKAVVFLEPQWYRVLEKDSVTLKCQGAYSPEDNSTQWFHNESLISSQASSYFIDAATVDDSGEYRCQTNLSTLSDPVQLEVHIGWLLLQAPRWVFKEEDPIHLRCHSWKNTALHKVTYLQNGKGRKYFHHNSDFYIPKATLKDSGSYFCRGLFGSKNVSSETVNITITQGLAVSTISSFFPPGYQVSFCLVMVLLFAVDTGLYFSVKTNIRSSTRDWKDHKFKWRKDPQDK

[5] = target: human CD16a (158V), full length, on cells (human) (UniProt P08637); test: FACS on FlpinCHO cells
[6] = target: human CD16b (NA1), full length, on FlpinCHO cells (human) (UniProt O75015); test: FACS on FlpinCHO cells
human CD16b (NA1), full length, on FlpinCHO cells (human), sequence (O75015 other isoform, or with tags, fused parts or gaps limits assumed): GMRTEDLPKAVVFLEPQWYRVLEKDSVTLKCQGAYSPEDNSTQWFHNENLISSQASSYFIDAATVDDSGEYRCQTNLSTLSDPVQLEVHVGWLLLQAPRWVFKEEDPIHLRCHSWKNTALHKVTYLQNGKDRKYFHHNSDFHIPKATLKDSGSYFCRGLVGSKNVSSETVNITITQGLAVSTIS

[7] = target: human CD16b (NA2), full length, on FlpinCHO cells (human) (UniProt O75015); test: FACS on FlpinCHO cells
human CD16b (NA2), full length, on FlpinCHO cells (human), sequence (O75015 17-200 N65S limits assumed): as the sequence (O75015 other isoform, or with tags, fused parts or gaps limits assumed) above, with R20S, N49S, D66N, V90I counted along it

[8] = target: human CD16a (158V), full length, on cells (human) (UniProt P08637); test: cell-based or functional assay; remark: listed apart in the source
[9] = target: human CD16a (158V), full length, on cells (human) (UniProt P08637); test: FACS, biotinylated antibody
[10] = target: human CD16a (158V), full length, on cells (human) (UniProt P08637); test: FACS, biotinylated antibody, +10 mg/mL human immunoglobulin

human CD16a (158V), full length, on cells (human), sequence (P08637 17-254 F176V limits assumed): as the sequence (P08637 17-254 limits assumed) above, with F160V counted along it
CD16 on primary human NK cells (human), sequence (P08637 17-254): as the sequence (P08637 17-254 limits assumed) above
cynomolgus monkey CD16, full length, on FlpinCHO cells (cynomolgus monkey), sequence (Q8SPW2 other isoform, or with tags, fused parts or gaps limits assumed): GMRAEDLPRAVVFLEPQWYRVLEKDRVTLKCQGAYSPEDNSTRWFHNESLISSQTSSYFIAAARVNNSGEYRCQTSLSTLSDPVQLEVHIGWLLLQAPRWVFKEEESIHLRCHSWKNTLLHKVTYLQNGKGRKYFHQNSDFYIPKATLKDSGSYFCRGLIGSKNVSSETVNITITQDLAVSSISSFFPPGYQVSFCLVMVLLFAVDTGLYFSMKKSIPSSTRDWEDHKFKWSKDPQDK

- Maximum mean fluorescence intensity [1]: 238
- Maximum fluorescence value [2]: 2070
- Maximum mean fluorescence intensity [3]: 128
- Maximum mean fluorescence intensity [4]: 216
- Maximum mean fluorescence intensity [5]: 248
- Maximum mean fluorescence intensity [6]: 189
- Maximum mean fluorescence intensity [7]: 447
- EC50, activation activity for Jurkat cell [8]: 19 nM
- Maximum fluorescence value [8]: 6400
- Maximum mean fluorescence intensity [9]: 134
- Maximum mean fluorescence intensity [10]: 96
Substance: NC, negative control antibody scFv-hFc (L234A, L235A and D265A) against chicken egg lysozyme (Fc fusion)
